Data: patent US12630620 (dated 2026)
Where two headings read alike, the source gives them in different places.

T1: commercial GDF15 recombinant protein (R&D, 9279-GD) (UniProt Q99988 197-308)
T1 chain: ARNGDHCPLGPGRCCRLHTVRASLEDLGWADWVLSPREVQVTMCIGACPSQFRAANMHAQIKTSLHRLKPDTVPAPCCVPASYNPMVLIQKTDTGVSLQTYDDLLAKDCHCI


Legend:
[1] = molecular target: T1, commercial GDF15 recombinant protein …; experiment: SPR
[2] = molecular target: T1, commercial GDF15 recombinant protein …; experiment: SPR

Row | Binder | Kd [1] | Kd [2]
1 | anti-GDF15 neutralizing monoclonal antibody G1 (antibody, V domains shown) VH: DVQLQESGPGLVKPSQSLSLTCTVTGYSITSAYAWNWIRQFPGNKLEWMGYISYSGSTSYNPSLKSRISITRDTSKNQFFLQFNSVTTEDTATYYCARGGDAEDYWGQGTTLTVSS VL: DIQMTQSPASLSVSVGETVTITCRASENIYSNLAWFQQKQGKSPQLLVYVATNLVDGVPSRFSGSGSGTQYSLKINSLQSEDFGTYYCQHFWGTPWTFGGGTKLEIK | 71.4 nM | 
2 | anti-GDF15 neutralizing monoclonal antibody G2 (antibody, V domains shown) VH: QVQLQQSGAELARPGASVKLSCKASGYTFTDYYINWVKQRTGQGLEWIGEIYPGSGNTYYNEKFKGKATLTADKSSSTAYMQLSSLTSEDSAVYFCARVRALLRPLAMDYWGQGTSVTVSS VL: QIVLSQSPAILSASPGEKVTMTCRASSSVSYMHWYQQKPGSSPKPWIYATSNLASGVPARFSGSGSGTSYSLTISRVEAEDAATYYCQQWSSNPPFTFGSGTKLEIK |  | 572 nM
